# Numbered stars: 1 amine (or outer) side, 2 acyl side, 3 side chain; on linkers, the order of the positions; unused ones are H or OH. Bridge positions count the residues as written; N and C are the ends. Ends that are not written are not given here. TBMB = c1c(C[*:1])cc(C[*:3])cc1C[*:2]
# What was measured:
# human plasma Kallikrein = target: T1, human plasma Kallikrein (human, UniProt P03952 20-638, limits assumed); assay: enzyme inhibition assay
# T1 construct: also called hPK; human PK
# [1] = target: T2, biotinylated human plasma Kallikrein (human, UniProt P03952 20-638, biotinylated); assay: phage binding assay, signal:background
# T2 construct: also called Biotinylated hPK
# T2 sequence (P03952 20-638 limits assumed): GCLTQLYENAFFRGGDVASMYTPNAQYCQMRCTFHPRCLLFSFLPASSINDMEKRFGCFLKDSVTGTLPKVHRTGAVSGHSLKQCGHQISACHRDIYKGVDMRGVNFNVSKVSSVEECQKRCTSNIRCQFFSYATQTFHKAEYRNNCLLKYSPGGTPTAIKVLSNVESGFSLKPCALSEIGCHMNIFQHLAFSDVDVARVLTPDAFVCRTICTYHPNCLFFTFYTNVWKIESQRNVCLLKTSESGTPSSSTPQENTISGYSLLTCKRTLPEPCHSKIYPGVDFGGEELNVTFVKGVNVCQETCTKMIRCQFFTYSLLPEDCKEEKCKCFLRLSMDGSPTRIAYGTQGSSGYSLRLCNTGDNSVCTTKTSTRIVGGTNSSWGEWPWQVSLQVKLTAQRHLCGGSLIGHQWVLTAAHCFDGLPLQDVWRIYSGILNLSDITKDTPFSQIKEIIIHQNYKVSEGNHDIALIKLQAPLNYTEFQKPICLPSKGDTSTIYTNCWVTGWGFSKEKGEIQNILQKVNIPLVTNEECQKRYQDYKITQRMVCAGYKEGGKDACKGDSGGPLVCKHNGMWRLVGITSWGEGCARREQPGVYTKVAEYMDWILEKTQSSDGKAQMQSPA
# Experimental: (§1) Library transformant colonies, or selection output colonies, were picked and grown as individual cultures in 2TY broth containing selective antibiotic. The picked colonies were DNA-sequenced using a QIAgen PyroMark Q96 DNA sequencer to reveal the amino-acid substitution present in each clone, and were assayed for human plasma Kallikrein binding as follows. The phage-containing supernatant was harvested from the culture and phage were cyclised with tris bromomethyl benzene(TBMB) based on the methods of Heinis et al (Nature Chemical Biology vol. 5 pp 502-507 (2009)). The purified phage from this process were assayed for binding to biotinylated human plasma Kallikrein using a homogeneous plate-based binding assay; assay read-out measured on a BMG Labtech Pherastar FS plate reader. The quantitative binding data from duplicate assay samples was averaged (mean) and expressed as signal:background. […] The assay data was correlated with the peptide sequences.
# Selections against human plasma Kallikrein were performed with this library in order to study the non-WPAR (SEQ ID NO: 18) determinants of Kallikrein binding, and to isolate the optimal WPAR (SEQ ID NO: 18)-containing peptide sequence.
# [2] = target: T2, biotinylated human plasma Kallikrein; assay: phage binding assay
# Experimental: as §1
# A library was constructed where positions 1, 6, 7, 8, 9 &10 of 06-34-03 were fixed and positions 2, 3, 4 & 5 were randomised (see 'Randomisation of peptide domains—Library construction' in Methods above). Selections against human plasma Kallikrein were performed at a variety of stringencies (see 'Phage selections' in Methods above). All output sequences were identified and analysed for target binding (see 'Randomisation of peptide domains—Assay of binding of individual clones' in Methods above). Table 17 lists each unique sequence, its relative abundance in the selection output (frequency), and a rank number according to target binding strength.
# T1 sequence (P03952 20-638 limits assumed): as above
binder,measurement,setting,value
"ACSWPARCNHQDLCA (linker 2-8-14 via TBMB; not fully specified (N-terminus, C-terminus), also called PK105) [06-57]",Ki,human plasma Kallikrein,0.4 nM
CQWPARCMHQELC (linker 1-7-13 via TBMB (inferred)) [SEQ ID NO 135],Binding assay signal,[1],73
CAWPARCLHQDWC (linker 1-7-13 via TBMB (inferred)) [SEQ ID NO 151],Binding assay signal,[1],63
CQWPARCMHQDMC (linker 1-7-13 via TBMB (inferred)) [SEQ ID NO 131],Binding assay signal,[1],75
CSWPARCTHQDLC (linker 1-7-13 via TBMB) [SEQ ID NO 73],Binding assay signal,[1],110
same,Rank (by Kallikrein binding),[2],1
CSWQARCTHQDLC (linker 1-7-13 via TBMB) [SEQ ID NO 114],Rank (by Kallikrein binding),[2],42
CSFPYRCTHQDLC (linker 1-7-13 via TBMB) [SEQ ID NO 77],Rank (by Kallikrein binding),[2],5
CSWPFRCTHQDLC (linker 1-7-13 via TBMB) [SEQ ID NO 86],Rank (by Kallikrein binding),[2],14
CSWLARCTHQDLC (linker 1-7-13 via TBMB) [SEQ ID NO 76],Rank (by Kallikrein binding),[2],4
CSFPIRCTHQDLC (linker 1-7-13 via TBMB) [SEQ ID NO 87],Rank (by Kallikrein binding),[2],15
CSFPFKCTHQDLC (linker 1-7-13 via TBMB) [SEQ ID NO 78],Rank (by Kallikrein binding),[2],6
CSWAARCTHQDLC (linker 1-7-13 via TBMB) [SEQ ID NO 79],Rank (by Kallikrein binding),[2],7
CSYPIRCTHQDLC (linker 1-7-13 via TBMB) [SEQ ID NO 90],Rank (by Kallikrein binding),[2],18
CSHPYRCTHQDLC (linker 1-7-13 via TBMB) [SEQ ID NO 80],Rank (by Kallikrein binding),[2],8
CSWPYRCTHQDLC (linker 1-7-13 via TBMB) [SEQ ID NO 82],Rank (by Kallikrein binding),[2],10
CSWWARCTHQDLC (linker 1-7-13 via TBMB) [SEQ ID NO 99],Rank (by Kallikrein binding),[2],27
CSWHARCTHQDLC (linker 1-7-13 via TBMB) [SEQ ID NO 96],Rank (by Kallikrein binding),[2],24
CSYPYRCTHQDLC (linker 1-7-13 via TBMB) [SEQ ID NO 98],Rank (by Kallikrein binding),[2],26
CSWSARCTHQDLC (linker 1-7-13 via TBMB) [SEQ ID NO 91],Rank (by Kallikrein binding),[2],19
CSFPWRCTHQDLC (linker 1-7-13 via TBMB) [SEQ ID NO 95],Rank (by Kallikrein binding),[2],23
CSYPFRCTHQDLC (linker 1-7-13 via TBMB) [SEQ ID NO 93],Rank (by Kallikrein binding),[2],21
CRFPFKCTHQDLC (linker 1-7-13 via TBMB) [SEQ ID NO 83],Rank (by Kallikrein binding),[2],11
CSFPYKCTHQDLC (linker 1-7-13 via TBMB) [SEQ ID NO 94],Rank (by Kallikrein binding),[2],22
CSHPFRCTHQDLC (linker 1-7-13 via TBMB) [SEQ ID NO 81],Rank (by Kallikrein binding),[2],9
CSWPSRCTHQDLC (linker 1-7-13 via TBMB) [SEQ ID NO 74],Rank (by Kallikrein binding),[2],2
CSWPARCVHQDMC (linker 1-7-13 via TBMB (inferred)) [SEQ ID NO 155],Binding assay signal,[1],61
"ACRWPARCLTTSLCA (linker 2-8-14 via TBMB; not fully specified (N-terminus, C-terminus), also called PK102) [06-59]",Ki,human plasma Kallikrein,0.5 nM
CSWPARCTHAEMC (linker 1-7-13 via TBMB (inferred)) [SEQ ID NO 158],Binding assay signal,[1],59
CDWPARCMHQEFC (linker 1-7-13 via TBMB (inferred)) [SEQ ID NO 152],Binding assay signal,[1],63
CSHRRWCTHQDLC (linker 1-7-13 via TBMB) [SEQ ID NO 113],Rank (by Kallikrein binding),[2],41
CTWPARCLHQDLC (linker 1-7-13 via TBMB (inferred)) [SEQ ID NO 136],Binding assay signal,[1],73
CTWPARCTHQAFC (linker 1-7-13 via TBMB) [SEQ ID NO 160],Binding assay signal,[1],59
CAWPARCTHQTMC (linker 1-7-13 via TBMB (inferred)) [SEQ ID NO 153],Binding assay signal,[1],61
CLWPARCLTTELC (linker 1-7-13 via TBMB (inferred)) [SEQ ID NO 157],Binding assay signal,[1],59
CAWPARCLHADMC (linker 1-7-13 via TBMB (inferred)) [SEQ ID NO 150],Binding assay signal,[1],66
CSLFDHCTHQDLC (linker 1-7-13 via TBMB) [SEQ ID NO 112],Rank (by Kallikrein binding),[2],40
CTWPARCLHQHMC (linker 1-7-13 via TBMB (inferred)) [SEQ ID NO 154],Binding assay signal,[1],61
